Assay results from patent publication US6307020A, “Intracellular antifreeze polypeptides and nucleic acids” (HSC Research and Development Ltd. Partnership, priority 1998, dated 2001).

Tests used:
[1] = Circular dichroism and thermal denaturation of liver and skin AFPs; type: physicochemical; details: for Tm (temperature at which fraction helix is 0.5): thermal denaturation 0-60° C., CD
Protocol: CD spectra were measured using a Jasco J-600 spectropolarimeter. A water-jacketed (0.1 cm) quartz cell was used. Concentrations of peptides were calculated from UV-absorbance at 230 nm (OD230 =6.1 mM/L peptide-bonds). The concentrations of peptides for CD measurement were between 0.1-0.2 mg/ml in 0.1M NH4 HCO3, pH 8.5. Thermal denaturation of the peptides were measured by varying temperatures from 0-60° C. with a 5° C. step gradient. After CD measurement at 60° C., the samples were cooled to 0° C. and the extent of refolding was determined. The mean residue ellipticity at a given wavelength [q]1 was expressed in degree cm^2 dmol^-1. Fraction helix was calculated as described by Greenfield and Fasman (1969) Biochemistry 8, 4108-4116, employing 222 nm instead of 208 nm: [formula]
The ellipticity [q]222^coil of each peptide in 6.0 M guanidine hydrochloride at 25° C. was assumed to represent 0% helix formation, and the ellipticity for [q]222^helix 100% helix formation was calculated from J. T. Yang et al. (1986) Methods in Enzymology 130, 208-269: [q]^n= [q]^.infin. (1-k/n); where n is the chain length and k is a wavelength-dependent factor (at 222 nm k=2.5 and [q].infin.=-37,400 degree cm^2 dmol^-1).

[2] = Antifreeze activity measured as thermal hysteresis with a Clifton Nanoliter Osmometer; type: physicochemical
Protocol: The preferred method of measuring the activity of a skin type AFP is to measure the thermal hysteresis (the difference between the melting and freezing temperatures) of an aqueous solution containing the AFP. This can be done by performing a serial dilution of the AFP-containing aqueous solution, followed by cooling the solution gradually and monitoring the freezing point of the solution. Typically, this is performed using commercially available equipment designed specifically for this purpose, such as nanoliter osmoineter. See, Kao et al. (1986) Can. J. Zool. 64:578-582. A preferred osmometer is the Clifton Nanoliter Osmoineter (Clifton Technical Physics, Hartford, N.Y.). Instructions for using the equipment to perform thermal hysteresis are available from the manufacturer. […]
The activity of a skin-type AFP can be measured using a nanoliter osmometer. Antifreeze activity was measured as thermal hysteresis (the difference between the melting and freezing temperatures), essentially following the procedure of Chakrabartty et al. (1989) J. Biol. Chem. 264: 11313-11316. Proteins were dissolved in 0.1 M NH4 HCO3 and their concentrations were determined by duplicate amino acid analyses. […]
Antifreeze activity was measured as thermal hysteresis (difference between the melting and freezing temperatures) essentially following the procedure of Chakrabartty et al. (1989) J. Biol. Chem. 264, 11307-11312. […]

## sAFP2: skin-type AFP from winter flounder, MDAPAKAAAA TAAAAKAAAEA TAAAAAKAAAA TKAGAAR, SEQ ID NO: 18; identical to protein encoded by F2 (MDAPAKAAAATAAAAKAAAEATAAAAAKAAAATKAGAAR)
[1]; 0° C., pH 8.5, 0.1M NH4HCO3, calculated from ellipticity at 222 nm
  Fraction Helix: 0.61
[1]; at 0° C.
  helical content by circular dichroism: 61%
[1]; measured at 0° C., pH 8.5, 0.1M NH4HCO3
  [Θ]222 mean residue ellipticity: -21,677 deg cm^2 dmol^-1
[1]
  Tm (temperature at which fraction helix is 0.5): 12 °C
[1]; listed as SAFP2
  Tm (temperature at which fraction helix is 0.5): 12.0 °C
[2]; dilutions 0.1 to 7.0 mM in 0.1 M NH4HCO3, FIG. 3
  antifreeze activity (thermal hysteresis) compared with serum AFP HPLC-6: less than half of that observed for HPLC-6
[2]; nanoliter osmometer, 0.1 M NH4HCO3
  antifreeze activity of GST-sAFP2 fusion protein compared with sAFP2: indistinguishable
